According to the supplement of paper PMC11246515:
± gives the standard deviation of the averaged measurements.

Test: total protein half-life in vivo (active degradation + dilution); higher = more stable protein
[1] = E. coli NCM3722 delta-clpP delta-lon delta-hslV, growth: N-lim chemostat, doubling time 6 h
[2] = E. coli NCM3722 delta-clpP, growth: N-lim chemostat, doubling time 6 h
[3] = E. coli NCM3722 delta-hslV, growth: N-lim chemostat, doubling time 6 h
[4] = E. coli NCM3722 delta-smpB, growth: N-lim chemostat, doubling time 6 h
[5] = wild type E. coli NCM3722, growth: C-lim chemostat, doubling time 3 h
[6] = wild type E. coli NCM3722, growth: C-lim chemostat, doubling time 6 h
[7] = wild type E. coli NCM3722, growth: C-lim chemostat, doubling time 12 h
[8] = wild type E. coli NCM3722, growth: N-lim chemostat, doubling time 6 h
[9] = wild type E. coli NCM3722, growth: N-lim chemostat, doubling time 12 h
[10] = wild type E. coli NCM3722, growth: P-lim chemostat, doubling time 6 h
[11] = wild type E. coli NCM3722, growth: P-lim chemostat, doubling time 12 h
[12] = E. coli NCM3722 delta-lon, growth: N-lim chemostat, doubling time 6 h

Sequence | total protein half-life in vivo [1] [h] | total protein half-life in vivo [2] [h] | total protein half-life in vivo [3] [h] | total protein half-life in vivo [4] [h] | total protein half-life in vivo [5] [h] | total protein half-life in vivo [6] [h] | total protein half-life in vivo [7] [h] | total protein half-life in vivo [8] [h] | total protein half-life in vivo [9] [h] | total protein half-life in vivo [10] [h] | total protein half-life in vivo [11] [h] | total protein half-life in vivo [12] [h]
MENQPKLNSSKEVIAFLAERFPHCFSAEGEARPLKIGIFQDLVDRVAGEMNLSKTQLRSALRLYTSSWRYLYGVKPGATRVDLDGNPCGELDEQHVEHARKQLEEAKARVQAQRAEQQAKKREAAATAGEKEDAPRRERKPRPTTPRRKEGAERKPRAQKPVEKAPKTVKAPREEQHTPVSDISALTVGQALKVKAGQNAMDATVLEITKDGVRVQLNSGMSLIVRAEHLVF | 6.28 ± 0.52 | 4.08 ± 0.88 | 3.47 ± 0.071 | 3.13 ± 0.045 | 2.73 ± 0.21 | 4.51 ± 0.22 | 6.83 ± 0.53 | 3.07 ± 0.052 | 4.76 ± 0.052 | 2.974 ± 0.024 | 4.71 ± 0.23 | –
MENYLIDNLDRGILEALMGNARTAYAELAKQFGVSPGTIHVRVEKMKQAGIITGARIDVSPKQLGYDVGCFIGIILKSAKDYPSALAKLESLDEVTEAYYTTGHYSIFIKVMCRSIDALQHVLINKIQTIDEIQSTETLIVLQNPIMRTIKP [P0ACI6] | – | 5.95 | 6.24 ± 1.1 | 5.72 ± 0.49 | 3.51 ± 0.15 | 6.232 ± 0.029 | 11.4 | 5.85 ± 0.57 | 11.6 ± 0.12 | 6.94 ± 0.64 | 13.2 ± 0.17 | 5.77 ± 0.21
MEQRRLASTEWVDIVNEENEVIAQASREQMRAQCLRHRATYIVVHDGMGKILVQRRTETKDFLPGMLDATAGGVVQADEQLLESARREAEEELGIAGVPFAEHGQFYFEDKNCRVWGALFSCVSHGPFALQEDEVSEVCWLTPEEITARCDEFTPDSLKALALWMKRNAKNEAVETETAE | 5.19 ± 0.16 | 4.78 ± 0.093 | 2.3 ± 0.074 | 2.49 ± 0.11 | 1.93 ± 0.17 | 4.53 ± 1.2 | 7.26 ± 0.99 | 2.85 | 3.09 ± 0.045 | 3.4 ± 0.06 | 7.2 ± 0.65 | 2.72 ± 0.38
MERCGWVSQDPLYIAYHDNEWGVPETDSKKLFEMICLEGQQAGLSWITVLKKRENYRACFHQFDPVKVAAMQEEDVERLVQDAGIIRHRGKIQAIIGNARAYLQMEQNGEPFVDFVWSFVNHQPQVTQATTLSEIPTSTSASDALSKALKKRGFKFVGTTICYSFMQACGLVNDHVVGCCCYPGNKP | 5.26 ± 0.55 | 2.52 ± 0.12 | 2.48 ± 0.17 | 1.72 ± 0.98 | – | 1.68 | 3.77 ± 2 | 2.53 ± 0.58 | 3.37 | – | – | 4.36 ± 0.28
MERLKRMSVFAKVVEFGSFTAAARQLQMSVSSISQTVSKLEDELQVKLLNRSTRSIGLTEAGRIYYQGCRRMLHEVQDVHEQLYAFNNTPIGTLRIGCSSTMAQNVLAGLTAKMLKEYPGLSVNLVTGIPAPDLIADGLDVVIRVGALQDSSLFSRRLGAMPMVVCAAKSYLTQYGIPEKPADLSSHSWLEYSVRPDNEFELIAPEGISTRLIPQGRFVTNDPMTLVRWLTAGAGIAYVPLMWVINEINRGELEILLPRYQSDPRPVYALYTEKDKLPLKVQVVINSLTDYFVEVGKLFQEMHGRGKEK | 5.96 ± 0.4 | 5.9 ± 0.28 | 6.51 ± 0.75 | 6.03 ± 0.19 | 3.47 ± 0.21 | – | 11 ± 0.14 | 5.69 ± 0.44 | 13.9 ± 0.74 | 5.75 ± 0.69 | 12.7 ± 0.32 | 6.27 ± 0.31
